Assay results taken from patent publication US20240117325.

B1: fusion protein of ferredoxin-thioredoxin reductase (FTRB/FTRA2) and thioredoxin Y2 fused via linker peptide (GGGGS)3 of 15 amino acid residues (protein)
chain 1: AKTEPSEKSVEIMRKFSEQYARRSGTYFCVDKGVTSVVIKGLAEHKDSYGAPLCPCRHYDDKAAEVGQGFWNCPCVPMRERKECHCMLFLTPDNDFAGKDQTITSDEIKETTANMGGGGSGGGGSGGGGSAAKKQTFNSFDDLLQNSDKPVLVDFYATWCGPCQLMVPILNEVSETLKDIIAVVKIDTEKYPSLANKYQIEALPTFILFKDGKLWDRFEGALPANQLVERIENSLQVKQ
chain 2: DIAVKSAASVDADADLSSSTSLETEEDEKAKEKIGARVRVTVPLKVYHVVRVPEVELMGMEGFIKDYVVLWKGKKISANLPFKVQFVKEIEGRGPVKFFTHLKEDEFELIDPHHHHHH
B2: fusion protein of ferredoxin-thioredoxin reductase (FTRB/FTRA2) and thioredoxin Y2 fused via linker peptide (GGGGS)2 of 10 amino acid residues (protein)
chain 1: AKTEPSEKSVEIMRKFSEQYARRSGTYFCVDKGVTSVVIKGLAEHKDSYGAPLCPCRHYDDKAAEVGQGFWNCPCVPMRERKECHCMLFLTPDNDFAGKDQTITSDEIKETTANMGGGGSGGGGSAAKKQTFNSFDDLLQNSDKPVLVDFYATWCGPCQLMVPILNEVSETLKDIIAVVKIDTEKYPSLANKYQIEALPTFILFKDGKLWDRFEGALPANQLVERIENSLQVKQ
chain 2: B1 chain 2
B3: fusion protein of ferredoxin-thioredoxin reductase (FTRB/FTRA2) and thioredoxin Y2 fused via linker peptide (GGGGS)1 of 5 amino acid residues (protein)
chain 1: AKTEPSEKSVEIMRKFSEQYARRSGTYFCVDKGVTSVVIKGLAEHKDSYGAPLCPCRHYDDKAAEVGQGFWNCPCVPMRERKECHCMLFLTPDNDFAGKDQTITSDEIKETTANMGGGGSAAKKQTFNSFDDLLQNSDKPVLVDFYATWCGPCQLMVPILNEVSETLKDIIAVVKIDTEKYPSLANKYQIEALPTFILFKDGKLWDRFEGALPANQLVERIENSLQVKQ
chain 2: B1 chain 2

Target: β-lactoglobulin

Protein | allergenic protein degradation rate | allergenic protein residual rate | reductase activity (AMS labelling, SDS-PAGE)
B1 | the degradation rate was 56% | the allergenic protein residual rate was 44% | The reduced form of the allergenic protein was detected in all of (b) to (d) in FIG. 11, confirming reductase activity
B2 | the degradation rate was 58% | the allergenic protein residual rate was 42% | The reduced form of the allergenic protein was detected in all of (b) to (d) in FIG. 11, confirming reductase activity
B3 | the degradation rate was 29% | the allergenic protein residual rate was 71% | The reduced form of the allergenic protein was detected in all of (b) to (d) in FIG. 11, confirming reductase activity
